Data reported in publication PMC5472220 (Nature structural & molecular biology, 2017).

Molecular target: the molecule itself
Assay: cryo-EM structure

B1: E. coli CTP synthase (ecCTPS), wild type (enzyme)
chain: MTTNYIFVTGGVVSSLGKGIAAASLAAILEARGLNVTIMKLDPYINVDPGTMSPIQHGEVFVTEDGAETDLDLGHYERFIRTKMSRRNNFTTGRIYSDVLRKERRGDYLGATVQVIPHITNAIKERVLEGGEGHDVVLVEIGGTVGDIESLPFLEAIRQMAVEIGREHTLFMHLTLVPYMAASGEVKTKPTQHSVKELLSIGIQPDILICRSDRAVPANERAKIALFCNVPEKAVISLKDVDSIYKIPGLLKSQGLDDYICKRFSLNCPEANLSEWEQVIFEEANPVSEVTIGMVGKYIELPDAYKSVIEALKHGGLKNRVSVNIKLIDSQDVETRGVEILKGLDAILVPGGFGYRGVEGMITTARFARENNIPYLGICLGMQVALIDYARHVANMENANSTEFVPDCKYPVVALITEWRDENGNVEVRSEKSDLGGTMRLGAQQCQLVDDSLVRQLYNAPTIVERHRHRYEVNNMLLKQIEDAGLRVAGRSGDDQLVEIIEVPNHPWFVACQFHPEFTSTPRDGHPLFAGFVKAASEFQKRQAK
- stoichiometry N: 4
